Test results published in the RNAGym collection of RNA variant scans (doi:10.1093/molbev/msab373).

B1: Azoarcus group I ribozyme (parent)
chain: GUGCCUUGCGCCGGGAAACCACGCAAGGGAUGGUGUCAAAUUCGGCGAAACCUAAGCGCCCGCCCGGGCGUAUGGCAACGCCGAGCCAAGCUUCGGCGCCUGCGCCGAUGAAGGUGUAGAGACUAGACGGCACCCACCUAAGGCAAACGCUAUGGUGAAGGCAUAGUCCAGGGAGUGGCGAAAGUCACACAAACCGG

Variants of: B1
Assay: reverse-splicing fitness (ratio to wild type); higher = more active; in vitro selection; Mg2+ level not given
Procedure, shortened: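 An in vitro group I ribozyme library with randomized positions was T7-transcribed and gel-purified. In triplicate, 10 pmol RNA in EPPS pH 7.5 was reacted with 50 pmoles of a 30-nt RNA substrate for 1 h at 37 °C across several added MgCl2 levels (1–48 mM), then stopped with EDTA. Products were reverse transcribed from a substrate-complementary primer, PCR-amplified and sequenced (HiSeq 4000). Fitness is a variant's read proportion after selection over that before, normalised to wild type.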

Variant	reverse-splicing fitness
C82U A111C A145G C150A C169U	0.0103
C82U A111C A145G C150A C169A	0.0093
C82U A111C A145G C150A U176C	0.0313
C82U A111C A145G C150A U176G	0.00984
C82U A111C A145G C150A U176A	0.0169
C82U A111C A145U C169U U176A	0.0163
C82U A111C A145U C169U U176C	0.0143
C82U A111C A145U C169U U176G	0.00634
C82U A111G A120C A145C C150A C169G U176C	0.00993
C82U A111G A120C A145C C150A C169G U176A	0.0198
C82U A111G A120C A145C C150A C169G U176G	0.00451
C82U A111G A120C A145C C169G U176C	0.00852
C82U A111G A120C A145C C169G U176A	0.0164
C82U A111G A120C A145C C169G U176G	0.00381
C82U A111C A145U C150A C169A U176C	0.0128
C82U A111C A145U C150A C169A U176G	0.00756
C82U A111C A145U C150A C169A U176A	0.0124
C82U A111G A120C A145C C169A	0.00548
C82U A111G A120C A145C C169G	0.00713
C82U A111G A120C A145C C169U	0.0106
C82U A111C A145G C150A C169G U176A	0.014
C82U A111C A145G C150A C169G U176C	0.0256
C82U A111C A145G C150A C169G U176G	0.00685
C82U A111G A120C A145G C169U U176A	0.0141

Variant	reverse-splicing fitness
C82U A111G A120C A145C C150G C169G U176C	0.004
C82U A111G A120C A145C C150G C169G U176A	0.00761
C82U A111G A120C A145C C150G C169G U176G	0.00397
C82U A111G A120C A145C C150U	0.0145
C82U A111G A120C A145C C150A	0.00803
C82U A111G A120C A145C C150G	0.00936
C82U A111C A145G C150G	0.0275
C82U A111C A145G C150U	0.183
C82U A111C A145G C150A	0.0325
C82U A111G A120C A145G C150U C169G U176C	0.0188
C82U A111G A120C A145G C150U C169G U176G	0.00507
C82U A111G A120C A145G C150U C169G U176A	0.0191
C82U A111G A120C A145C C150G U176G	0.00231
C82U A111G A120C A145C C150G U176C	0.00742
C82U A111G A120C A145C C150G U176A	0.00388
C82U A111C A145G	0.266
C82U A111C A145U	0.246
C82U A111C A145G C150G C169A U176A	0.0123
C82U A111C A145G C150G C169A U176C	0.0111
C82U A111C A145G C150G C169A U176G	0.0072
C82U A111G A120C A145G C150G U176G	0.0033
C82U A111G A120C A145G C150G U176A	0.00545
C82U A111G A120C A145G C150G U176C	0.00793
C82U A111C A145U C150A C169G U176A	0.0138

Variant	reverse-splicing fitness
C82U A111C A145U C150A C169G U176C	0.0178
C82U A111C A145U C150A C169G U176G	0.00796
C82U A111C A145G C150A C169A U176C	0.0197
C82U A111C A145G C150A C169A U176A	0.0149
C82U A111C A145G C150A C169A U176G	0.00838
C82U A111G A120C A145G C150U U176C	0.0274
C82U A111G A120C A145G C150U U176G	0.00625
C82U A111G A120C A145G C150U U176A	0.0138
C82U A111C A145G C150U C169U U176C	0.0121
C82U A111C A145G C150U C169U U176G	0.00645
C82U A111C A145G C150U C169U U176A	0.0144
C82U A111C C150G C169G U176C	0.00488
C82U A111C C150G C169G U176G	0.00523
C82U A111C C150G C169G U176A	0.00576
C82U A111C A145U C169A U176C	0.0139
C82U A111C A145U C169A U176A	0.0129
C82U A111C A145U C169A U176G	0.00703
C82U A111C C150A C169U U176G	0.00777
C82U A111C C150A C169U U176C	0.0169
C82U A111C C150A C169U U176A	0.0166
C82U A111G A120C A145G C150G C169G U176G	0.00471
C82U A111G A120C A145G C150G C169G U176A	0.00909
C82U A111G A120C A145G C150G C169G U176C	0.00625
C82U A111G A120C A145G C150G C169U U176G	0.0053

Variant	reverse-splicing fitness
C82U A111G A120C A145G C150G C169U U176A	0.00704
C82U A111G A120C A145G C150G C169U U176C	0.0109
C82U A111G A120C A145C	0.0519
C82U A111G A120C A145G	0.0552
C82U A111C A145G C150U C169A	0.00963
C82U A111C A145G C150U C169G	0.00802
C82U A111C A145G C150U C169U	0.00955
C82U A111G A120C A145C C150G C169G	0.00679
C82U A111G A120C A145C C150G C169U	0.00749
C82U A111G A120C A145C C150G C169A	0.0076
C82U A111G A120C A145C C150U U176A	0.0105
C82U A111G A120C A145C C150U U176C	0.0114
C82U A111G A120C A145C C150U U176G	0.00465
C82U A111C A145U C150G C169G U176C	0.00532
C82U A111C A145U C150G C169G U176G	0.00703
C82U A111C A145U C150G C169G U176A	0.00648
C82U A111C A145U C150G C169U	0.00877
C82U A111C A145U C150G C169A	0.00756
C82U A111C A145U C150G C169G	0.00721
C82U A111C A145C U176G	0.0186
C82U A111C A145C U176C	0.0915
C82U A111C A145C U176A	0.0676
C82U A111C A145G C150A C169U U176A	0.0144
C82U A111C A145G C150A C169U U176G	0.00739

Variant	reverse-splicing fitness
C82U A111C A145G C150A C169U U176C	0.0157
C82U A111G A120C A145C C150U C169G	0.0077
C82U A111G A120C A145C C150U C169A	0.00705
C82U A111G A120C A145C C150U C169U	0.00927
C82U A111C A145U C150A U176A	0.0153
C82U A111C A145U C150A U176G	0.00817
C82U A111C A145U C150A U176C	0.022
C82U A111G A120C A145G C150G C169A U176C	0.0107
C82U A111G A120C A145G C150G C169A U176A	0.0113
C82U A111G A120C A145G C150G C169A U176G	0.00661
C82U A111C A145C C169A U176C	0.00939
C82U A111C A145C C169A U176A	0.0127
C82U A111C A145C C169A U176G	0.00613
C82U A111G A120C A145C C150U C169A U176A	0.00891
C82U A111G A120C A145C C150U C169A U176C	0.00487
C82U A111G A120C A145C C150U C169A U176G	0.00468
C82U A111G A120C A145G C150U C169A U176A	0.0135
C82U A111G A120C A145G C150U C169A U176C	0.0152
C82U A111G A120C A145G C150U C169A U176G	0.00429
C82U A111G A120C	0.0555
C82U A111C C150U C169A U176G	0.008
C82U A111C C150U C169A U176A	0.0124
C82U A111C C150U C169A U176C	0.0134
C82U A111C A145U C150A C169U U176A	0.0193

Variant	reverse-splicing fitness
C82U A111C A145U C150A C169U U176C	0.013
C82U A111C A145U C150A C169U U176G	0.00805
C82U A111G A120C A145C U176A	0.0156
C82U A111G A120C A145C U176G	0.00487
C82U A111G A120C A145C U176C	0.0213
C82U A111C C169A U176A	0.016
C82U A111C C169A U176C	0.0243
C82U A111C C169A U176G	0.00617
C82U A111G A120C A145G C150A C169U U176A	0.015
C82U A111G A120C A145G C150A C169U U176G	0.00508
C82U A111G A120C A145G C150A C169U U176C	0.014
C82U A111C C150U	0.123
C82U A111C C150A	0.0255
C82U A111C C150G	0.0163
C82U A111C A145G C150G C169U U176A	0.0102
C82U A111C A145G C150G C169U U176G	0.0073
C82U A111C A145G C150G C169U U176C	0.00994
C82U A111C C150U C169U U176G	0.00713
C82U A111C C150U C169U U176C	0.0145
C82U A111C C150U C169U U176A	0.0192
C82U A111G A120C A145C C169A U176A	0.00738
C82U A111G A120C A145C C169A U176C	0.00404
C82U A111G A120C A145C C169A U176G	0.003
C82U A111C A145U C150U C169G U176C	0.0165

Variant	reverse-splicing fitness
C82U A111C A145U C150U C169G U176G	0.00709
C82U A111C A145U C150U C169G U176A	0.0121
C82U A111C C150G C169U	0.00902
C82U A111C C150G C169A	0.00807
C82U A111C C150G C169G	0.00661
C82U A111C A145U C150U C169G	0.00836
C82U A111C A145U C150U C169A	0.00889
C82U A111C A145U C150U C169U	0.0107
C82U A111C C150A C169A U176C	0.0175
C82U A111C C150A C169A U176G	0.00821
C82U A111C C150A C169A U176A	0.0162
C82U A111G A120C A145G C150U C169U U176A	0.0147
C82U A111G A120C A145G C150U C169U U176C	0.0127
C82U A111G A120C A145G C150U C169U U176G	0.00448
C82U A111C A145G C150U U176G	0.0161
C82U A111C A145G C150U U176A	0.0576
C82U A111C A145G C150U U176C	0.085
C82U A111C C169A	0.00958
C82U A111C C169G	0.00866
C82U A111C C169U	0.0123
C82U A111C C150G U176A	0.00801
C82U A111C C150G U176G	0.00363
C82U A111C C150G U176C	0.0147
